Assay results taken from paper PMC4994250, “A new mode of SAM domain mediated oligomerization observed in the CASKIN2 neuronal scaffolding protein” (Cell Communication and Signaling : CCS, 2016).

Columns and labels:
[1] = target: the molecule itself; experiment: crystal structure; selenomethionine labeled SAM1-SAM2, 0.6 mM in T300 buffer, hanging drop at 4 °C, 0.1 M Tris pH 7.5, 2.4 M sodium formate, 5 mM DTT; SAD, 2.75 Å; one tandem in the asymmetric unit
[2] = target: the molecule itself; experiment: AUC; sedimentation velocity, 150 mM NaCl, 20 mM sodium phosphate pH 7.8, 20 °C, 50,000 rpm; 10 and 34 μM loading, Kd fitted from the 34 μM experiment; monomer-dimer equilibrium (dimer to monomers)
[3] = target: the molecule itself; experiment: AUC; sedimentation velocity, 300 mM NaCl, 20 mM sodium phosphate pH 7.8, 20 °C, 50,000 rpm; 10 and 34 μM loading, Kd fitted from the 34 μM experiment; monomer-dimer equilibrium (dimer to monomers)

B1: human CASKIN2 SAM1-SAM2 tandem (483-634), wild type (domain or fragment)
chain: not shown
modifications: selenomethionine in the protein used for crystals; uniform 15N label in the NMR samples
notes: CASKIN2, human, tandem SAM domains SAM1-SAM2, residues 483-634 of Uniprot Q8WXE0; Cloned into BamHI/XhoI of pET28; the vector probably adds an N-terminal His tag with linker residues (surmise); also called CASKIN2 SAM tandem; wild type SAM tandem; source: E. coli BL21:DE3, purified (Nickel-NTA, gel filtration)
[1]
  stoichiometry N: 2
[2]
  Kd: 52.9 µM
[3]
  Kd: 27.6 µM
